How the values were obtained:
[1] = biological target: T1, SgrAI wild type (UniProt Q9F6L0 1-339); experiment: X-ray crystal structure, 2.03 A; 50 mM CaCl2; two Ca2+ per active site; domain-swapped tetramer with two duplexes; FPA: 20 mM Tris-OAc pH 8.0, 50 mM KOAc, 10 mM Ca(OAc)2, 1 mM DTT, 10% glycerol, 4 C, 1 nM DNA; native PAGE: same binding buffer, 1 uM SgrAI, 30 min at 4 C, gel; details: protein: recombinant; chain copies: 2; 5' overhang 1 nt (A) at each end; self-complementary, 2 strand copies
T1 sequence: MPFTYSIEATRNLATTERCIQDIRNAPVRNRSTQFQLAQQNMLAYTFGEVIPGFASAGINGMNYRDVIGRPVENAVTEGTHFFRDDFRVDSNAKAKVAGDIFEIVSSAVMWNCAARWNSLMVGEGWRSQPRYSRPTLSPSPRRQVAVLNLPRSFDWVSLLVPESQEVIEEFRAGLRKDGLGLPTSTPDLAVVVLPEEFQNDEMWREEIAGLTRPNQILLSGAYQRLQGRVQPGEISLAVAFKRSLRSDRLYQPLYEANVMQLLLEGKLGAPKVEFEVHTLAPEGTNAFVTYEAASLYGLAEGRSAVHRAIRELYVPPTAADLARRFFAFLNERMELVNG

[2] = biological target: T2, SgrAI P27W (UniProt Q9F6L0 1-339, P27W); experiment: fluorescence polarization anisotropy; 10 mM Ca2+; FPA: 20 mM Tris-OAc pH 8.0, 50 mM KOAc, 10 mM Ca(OAc)2, 1 mM DTT, 10% glycerol, 4 C, 1 nM DNA; native PAGE: same binding buffer, 1 uM SgrAI, 30 min at 4 C, gel; details: protein: recombinant, chain copies: 2
T2 sequence: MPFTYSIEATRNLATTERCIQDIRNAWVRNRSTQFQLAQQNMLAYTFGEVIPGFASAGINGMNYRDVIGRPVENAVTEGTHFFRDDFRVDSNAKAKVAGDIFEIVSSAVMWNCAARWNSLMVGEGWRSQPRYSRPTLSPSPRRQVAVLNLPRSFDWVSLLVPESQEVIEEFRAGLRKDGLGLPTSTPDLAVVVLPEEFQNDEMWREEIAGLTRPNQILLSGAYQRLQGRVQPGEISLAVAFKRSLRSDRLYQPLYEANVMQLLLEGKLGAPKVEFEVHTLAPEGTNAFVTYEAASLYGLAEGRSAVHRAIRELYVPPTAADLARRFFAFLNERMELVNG

[3] = biological target: T3, SgrAI P27G (UniProt Q9F6L0 1-339, P27G); experiment: as above; details: protein: recombinant, chain copies: 2
T3 sequence: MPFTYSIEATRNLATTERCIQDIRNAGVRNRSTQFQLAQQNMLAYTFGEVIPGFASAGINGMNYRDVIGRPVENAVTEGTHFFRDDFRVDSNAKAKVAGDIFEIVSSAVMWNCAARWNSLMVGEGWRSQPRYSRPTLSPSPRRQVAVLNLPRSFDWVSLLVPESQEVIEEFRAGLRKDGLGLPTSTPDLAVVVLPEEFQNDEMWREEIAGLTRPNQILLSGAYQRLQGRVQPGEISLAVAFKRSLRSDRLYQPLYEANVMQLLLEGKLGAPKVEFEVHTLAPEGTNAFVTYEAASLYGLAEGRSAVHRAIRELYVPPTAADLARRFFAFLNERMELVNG

[4] = biological target: the molecule itself; experiment: crystal structure; SgrAI with self-complementary 17-mer cognate DNA (1:2 SgrAI dimer:DNA duplex) and Ca2+; 14% PEG 4K, 0.1 M imidazole pH 6.5, 0.15 M NaCl, 0.05 M CaCl2, 17°C; two DNA bound dimers form a domain swapped tetramer (N counts subunits)
[5] = label: 5' FLO on top strand only
[6] = label: 5' HEX on both strands (FPA), 5' 32P (native gel), blunt, self-complementary, 2 strand copies

B1: 17-2 cognate (crystal DNA) (dsDNA)
DNA 1: AAGTCCACCGGTGGACT
DNA 2: AAGTCCACCGGTGGACT
Q: Does B1 bind [1]?
A: Result: binds

B2: PCP (precleaved primary site DNA) (dsDNA)
DNA 1: GATGCGTGGGTCTTCACA
DNA 2: CCGGTGTGAAGACCCACGCATC
modifications: 5' phosphate at the cleavage site
Q: Which Kd [2, 5] does the source give for B2 here?
A: The Kd was 9 ± 2 nM.

Q: And the Kd [3, 5]?
A: Its Kd is 5 ± 2 nM.

B3: SgrAI restriction endonuclease, wild type (enzyme, Streptomyces griseus)
chain: PFTYSIEATRNLATTERCIQDIRNAPVRNRSTQFQLAQQNMLAYTFGEVIPGFASAGINGMNYRDVIGRPVENAVTEGTHFFRDDFRVDSNAKAKVAGDIFEIVSSAVMWNCAARWNSLMVGEGWRSQPRYSRPTLSPSPRRQVAVLNLPRSFDWVSLLVPESQEVIEEFRAGLRKDGLGLPTSTPDLAVVVLPEEFQNDEMWREEIAGLTRPNQILLSGAYQRLQGRVQPGEISLAVAFKRSLRSDRLYQPLYEANVMQLLLEGKLGAPKVEFEVHTLAPEGTNAFVTYEAASLYGLAEGRSAVHRAIRELYVPPTAADLARRFFAFLNERMELVNG
notes: the structure legends name residues 1-24 (swapping domain), 25-30 (hinge loop) and 31-339; residues 1-339 are named for the structure; also called WT SgrAI; wild type SgrAI dimer
Q: Which “stoichiometry N” value [4] does the source give for B3 here?
A: Its value is 4.

B4: 18-1 (primary site) (dsDNA)
DNA 1: AAGTCCACCGGTGGACTT
DNA 2: AAGTCCACCGGTGGACTT
Q: What does the source list for B4?
A: Kd [2, 6]: 4 ± 0.8 nM; Kd [3, 6]: 17 ± 5 nM

Source: paper PMC2998434, “Domain Swapping in Allosteric Modulation of DNA Specificity” (PLoS Biology, 2010)
